Sequences and labels used below:
B1: ETS1 (parent)
chain: YVRDRADLNKDKPVIPAAALAGYT
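Further: lentivirally expressed fusions sorted by FACS into six bins by GFP to DsRed ratio, PSI derived from sequencing read proportions per bin multiplied by bin number.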

The variants in the data set derive from B1. The experiment in a line: protein stability index of a GFP-peptide fusion (GPS, HEK-293T) (PSI 1-6); higher = more stable. To be noted: c terminus: a fixed tail appended.
For YVRDRADLNKDCPVIPAAALAGYT [K12C], the protein stability index amounted to 2.13. As for YVRDRADLNKDGPVIPAAALAGYT [K12G], the figure is 2.17; as for YVRDRADLNKDMPVIPAAALAGYT [K12M], 1.9; as for YVRDRADLNKDIPVIPAAALAGYT [K12I], 2.19. As for YVRDRADLNKDAPVIPAAALAGYT [K12A], the figure is 2.39; as for YVRDRADLNKDHPVIPAAALAGYT [K12H], 2.29; as for YVRDRADLNKDVPVIPAAALAGYT [K12V], 2.47. In the case of YVRDRADLNKDFPVIPAAALAGYT [K12F] it was 2.1; in that of YVRDRADLNKDDPVIPAAALAGYT [K12D], 2.04. For YVRDRADLNKDWPVIPAAALAGYT [K12W], the protein stability index is 2.43.

For the variant YVRDRADLNKDQPVIPAAALAGYT [K12Q], the protein stability index was 2.48.

YVRDRADLNKDNPVIPAAALAGYT [K12N]: the protein stability index is 2.29. On to YVRDRADLNKDRPVIPAAALAGYT [K12R], for which the protein stability index turned out to be 2.08.

In the case of YVRDRADLNKDPPVIPAAALAGYT [K12P], the protein stability index was 1.95.

Regarding YVRDRADLNKDYPVIPAAALAGYT [K12Y], the protein stability index was determined as 1.94. In the case of YVRDRADLNKDSPVIPAAALAGYT [K12S] it was 2.48. In the case of YVRDRADLNKDTPVIPAAALAGYT [K12T] it was 2.02; in that of YVRDRADLNKDLPVIPAAALAGYT [K12L], 2.47. In the case of YVRDRADLNKDEPVIPAAALAGYT [K12E] it was 1.79; in that of YVRDRADLNKDKPVIPCAALAGYT [A17C], 2.97; in that of YVRDRADLNKDKPVIPLAALAGYT [A17L], 2.04.

Consider YVRDRADLNKDKPVIPMAALAGYT [A17M], for which the protein stability index was determined as 1.38. Turning to YVRDRADLNKDKPVIPPAALAGYT [A17P], the protein stability index worked out at 1.79.

For the variant YVRDRADLNKDKPVIPNAALAGYT [A17N], the protein stability index is 1.64. As for YVRDRADLNKDKPVIPQAALAGYT [A17Q], the figure is 1.87; as for YVRDRADLNKDKPVIPWAALAGYT [A17W], 3.98; as for YVRDRADLNKDKPVIPDAALAGYT [A17D], 1.41.

Regarding YVRDRADLNKDKPVIPKAALAGYT [A17K], the protein stability index turned out to be 1.98. In the case of YVRDRADLNKDKPVIPHAALAGYT [A17H] it was 2.15; in that of YVRDRADLNKDKPVIPVAALAGYT [A17V], 1.63. Take YVRDRADLNKDKPVIPGAALAGYT [A17G]: the protein stability index is 3.1. As for YVRDRADLNKDKPVIPYAALAGYT [A17Y], the figure is 2.86; as for YVRDRADLNKDKPVIPTAALAGYT [A17T], 2.11; as for YVRDRADLNKDKPVIPEAALAGYT [A17E], 2.19. In the case of YVRDRADLNKDKPVIPSAALAGYT [A17S] it was 2.25; in that of YVRDRADLNKDKPVIPIAALAGYT [A17I], 2.52. As to YVRDRADLNKDKPVIPFAALAGYT [A17F], the protein stability index is 1.76. YVRDRADTNKDKPVIPAAALAGYT [L8T]: the protein stability index was found to be 2.44. As for YVRDRADMNKDKPVIPAAALAGYT [L8M], the protein stability index came to 2.9.

On to YVRDRADYNKDKPVIPAAALAGYT [L8Y], for which the protein stability index amounted to 2.9. As to YVRDRADKNKDKPVIPAAALAGYT [L8K], the protein stability index is 2.19. In the case of YVRDRADQNKDKPVIPAAALAGYT [L8Q] it was 1.77.

As to YVRDRADRNKDKPVIPAAALAGYT [L8R], the protein stability index was 1.88. In the case of YVRDRADWNKDKPVIPAAALAGYT [L8W] it was 2.23; in that of YVRDRADINKDKPVIPAAALAGYT [L8I], 2.64.

With YVRDRADVNKDKPVIPAAALAGYT [L8V], the protein stability index amounted to 2.31. In the case of YVRDRADSNKDKPVIPAAALAGYT [L8S] it was 1.72. As for YVRDRADPNKDKPVIPAAALAGYT [L8P], the figure is 1.87; as for YVRDRADNNKDKPVIPAAALAGYT [L8N], 2.53.

Turning to YVRDRADLNYDKPVIPAAALAGYT [K10Y], the protein stability index was 1.97. In the case of YVRDRADLNNDKPVIPAAALAGYT [K10N] it was 2.08; in that of YVRDRADLNWDKPVIPAAALAGYT [K10W], 2.19; in that of YVRDRADLNRDKPVIPAAALAGYT [K10R], 2.24.

In the case of YVRDRADLNGDKPVIPAAALAGYT [K10G], the protein stability index is 2.97. Consider YVRDRADLNLDKPVIPAAALAGYT [K10L], for which the protein stability index worked out at 2.62. In the case of YVRDRADLNEDKPVIPAAALAGYT [K10E] it was 1.88. As for YVRDRADLNFDKPVIPAAALAGYT [K10F], the figure is 3.25; as for YVRDRADLNHDKPVIPAAALAGYT [K10H], 2.18; as for YVRDRADLNDDKPVIPAAALAGYT [K10D], 2.58. As for YVRDRADLNQDKPVIPAAALAGYT [K10Q], the figure is 2.55; as for YVRDRADLNSDKPVIPAAALAGYT [K10S], 1.59; as for YVRDRADLNCDKPVIPAAALAGYT [K10C], 2.75.

For the variant YVRDRADLNADKPVIPAAALAGYT [K10A], the protein stability index worked out at 2.58. For the variant YVRDRADLNIDKPVIPAAALAGYT [K10I], the protein stability index was found to be 2.23. As for YVRDRADLNPDKPVIPAAALAGYT [K10P], the protein stability index turned out to be 2.6.

In the case of YVRDRADLNVDKPVIPAAALAGYT [K10V], the protein stability index is 1.55.

Take YVRDRADLNTDKPVIPAAALAGYT [K10T]: the protein stability index stood at 2.67.

On to YVRDRADLNMDKPVIPAAALAGYT [K10M], for which the protein stability index was found to be 2.32. As for YVRDRADLNKDKCVIPAAALAGYT [P13C], the figure is 1.8. As for YVRDRADLNKDKAVIPAAALAGYT [P13A], the figure is 1.53. With YVRDRADLNKDKVVIPAAALAGYT [P13V], the protein stability index came to 2.77. In the case of YVRDRADLNKDKTVIPAAALAGYT [P13T] it was 2.4; in that of YVRDRADLNKDKEVIPAAALAGYT [P13E], 1.74. As for YVRDRADLNKDKKVIPAAALAGYT [P13K], the figure is 2.4. Take YVRDRADLNKDKLVIPAAALAGYT [P13L]: the protein stability index was 2.82.

YVRDRADLNKDKNVIPAAALAGYT [P13N]: the protein stability index worked out at 2.46. Consider YVRDRADLNKDKWVIPAAALAGYT [P13W], for which the protein stability index is 2.13.

With YVRDRADLNKDKHVIPAAALAGYT [P13H], the protein stability index turned out to be 2.36.

Turning to YVRDRADLNKDKSVIPAAALAGYT [P13S], the protein stability index is 1.62. On to YVRDRADLNKDKFVIPAAALAGYT [P13F], for which the protein stability index was 2.85.

As for YVRDRADLNKDKDVIPAAALAGYT [P13D], the protein stability index worked out at 1.63.

Turning to YVRDRADLNKDKQVIPAAALAGYT [P13Q], the protein stability index came out at 1.63. In the case of YVRDRADLNKDKRVIPAAALAGYT [P13R] it was 3.04; in that of YVRDRADLNKDKGVIPAAALAGYT [P13G], 2.23. In the case of YVRDRADLNKDKIVIPAAALAGYT [P13I] it was 1.88; in that of YVRDRADLNKDKMVIPAAALAGYT [P13M], 1.95. With YVRDRADLNKDKYVIPAAALAGYT [P13Y], the protein stability index turned out to be 2.59. As for YVRDRADLNKDKPVNPAAALAGYT [I15N], the figure is 3.26; as for YVRDRADLNKDKPVMPAAALAGYT [I15M], 2.7; as for YVRDRADLNKDKPVWPAAALAGYT [I15W], 2.77. For the variant YVRDRADLNKDKPVAPAAALAGYT [I15A], the protein stability index came out at 2.8. On to YVRDRADLNKDKPVQPAAALAGYT [I15Q], for which the protein stability index worked out at 2.57. In the case of YVRDRADLNKDKPVGPAAALAGYT [I15G] it was 2.09; in that of YVRDRADLNKDKPVHPAAALAGYT [I15H], 2.29.
